Target: A beta 1-40 oligomer (synthetic A beta1-40, HCl form, 0.1 mg/ml in PBS, incubated at 37 degrees C for one hour) (UniProt P05067)
Assay: SPR, Biacore 3000, A beta oligomer on CM5 chip, antibody as analyte

Kd: 2.91 nM
koff: 0.000168 s⁻¹
kon: 57800 M⁻¹ s⁻¹
Substance: Anti-A beta antibody 6E10 (Covance Immuno-Technologies)
